In the domain aggregation screens of Martell et al. (2025):

experiment: soluble fraction after stress (log2 fold change); higher = more stays soluble; pooled small domains, quantitative proteomics; details: stress: 50 degC
In short: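 Pooled custom libraries of small protein domains were each held under stress at 50°C. The read-out, high-throughput quantitative proteomics, tracked how much of each protein stayed soluble. This is reported as a base-two log fold change used to indicate aggregation propensity. Higher values mean more protein remains in solution.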

Point of comparison: “HMQQEAVNLVQSRGQQAIEPVHIMQGVMKVGENVTNFIFQKLGMNGQQVALVVDKQIDSLPKVSGGEPYL”, “soluble fraction (log2)” value 0.0273. Against it:
- HMQEERDISFIKIHLEPGHPWRGRALRELMPLKDLLIVMVVRGEDTIVPNGDTRLEEGDLLVLAAYPFEE — lower, -0.436
- HMAKNIEVPNLVGSTISVARNDLKQLGLHVIVRDSVWSEDKKIDTILEQFPEPGKKLKPEGVVQVVVSI — lower, -0.408
- HMRKIGDVLRLHAGGLSKRRIAVSLNIGRTAVGDYISRARRAGLGWPLPEDLSEEALERLLFPPP — lower, -2.59
- HMFVNADEIAKGLSPFNPSSVAIEAGRLMLKRIGELLSAGVSFSVETTLSTRSYINLIQQAQNQGYSVSL — higher, ≥ 0.62
- HMNNSDIDITVGKNSISINNPNRTNIIIYSSNGMLIDSSKNASYKRNLPSGIYIVKSGSSTHKVIV — within 0.2 log units, -0.148
- HMNHLLYPNPANNFIWIKNSTSNTAVIYNLQGVMSKVEVSEEGKIDISRFSPGLYMIKQGERIYKFTIA — lower, -1.34
- HMSPPVIQQGQDVRLIYKGTGFAVSNEGKALNTAADGQVARARTGGGQTVSGIARPGGIIEIT — higher, 0.308
- HMQQVIQSGQKVQLMATDGSFQVSAEGVALKNGSVGEVIGVRMPSGRVISGVVSASGAVEVR — within 0.2 log units, 0.146
- HMQASIPQSQKDALAKELQALPPHGRNRVLSTFRQQFNISSEKISEFITTPEHLSFIRSKIAEVESDS — within 0.2 log units, 0.0722
- HMHVLAVDEALHKLTELNELHAKIVEMRFFSGMTVQEVADELGVSKRKIESEWTMIKAWLRKELN — lower, -0.665
- HMAHPRTHEALNPLWEKYLGPNAGNDFFLSGGTSLKALMFLKDLEKTLNKRIAIHAFFKDPTYEHVVSD — lower, -0.683
- HMEKSSALRAKEAFMALYHDGKFKPGTKIPSESNMAELLGVSRETWRKALALLRGDGVLYSKHGSGTYLLE — within 0.2 log units, 0.11
- HMNHLSYEQRLKIKEMLDGGFKKIDIARALGVHNATIYREIERGSVNGIYNPNKSEEQYRDHLSEK — higher, 0.255
- HMREGIQLGDPVRVIRDPLFGKIGAVSGLPSELRAIPTESEVRVLEVRFPDGTTTVVPRANIEVIEG — higher, 0.364
- HMILNPQELGERIRKLRLKRNKTQSYFADMLYISSSYLALIESGKRVPNLDLLIHIAKFTDVTLDYLVFG — lower, -1.22
- HMLSVRNRMSDVLKSLDDGEFHRFESLFNLEEGRLGVVVTFLAMLELAKEMLVEIVQNESLGPIYLKSR — within 0.2 log units, -0.0774
- HMASANMPDVLGLDAETAKQVLAAKGFTKVEIYPMESSEPANRVVRQSEDRDTMVALTKEILLGVSNGS — within 0.2 log units, 0.186
- HMKGIVFTEFLDLVEERFGLEMVDAIISQSKLESKGVYTSIGTYSFSELLQLLQNLKIQTGISIDNLLLI — lower, -0.88
- HMGMTDEELNREEERVVAELEAKDEEELTIYNEEDLTFEETLDLPEGSLMRDRENGMIYLKVLDIWMPY — lower, -0.54
- HMAGTWQDQGNGQWKYQNDDGSYATGWIEDSGKSYYLDANGIMLANTTTPDGKQVGPDGALIP — within 0.2 log units, -0.141
- HMTVVHRQVHLQPDQGAFRAALYSHKAVLSEQTDDQGAINLEIRLPESDFLRLLNSSGLKLQDLVP — within 0.2 log units, -0.0198
- HMRKTIQDFLSSNKVDIAKLLTLALEKTKEDLYKNLSYNLTNKELEKLKLLIKKREQGIPFAYLS — within 0.2 log units, -0.0368
- HMTVGENTYELIKKDIIFGVLPPLKKLKLQELKKIYNASVSTLREILSRLTGDGFVFSEEQKGFYVSPV — within 0.2 log units, 0.00444
- HMQEIKPEPISDGRVWKEGMWATTPLGIEGQLLSDPDEKGMVQLGYGNMRININIQDLDPSR — within 0.2 log units, -0.0705
- HMFQLSNEAKQQVLGELKRYESKQSAVLPALYIGQKDNKGHITPEVIRELSKVMDIPESQINEVFTFYTM — within 0.2 log units, -0.119
- HMSALTDQQQRVLELVASGLVYKEVAAALSISEPTVKYHMGNILTRLHVKNRAQAIAAARQQGLL — lower, -1.21
- HMRIHKQLGDRIRNLRLSSGMNQEELAFKSGISAAHLGQIERGLKSPTISTIQKIAKALNVTLPILF — lower, -0.298
- HMQSAKLSYSDFMQKVNAGDVVSVKIQGPKISGVTTGGGKFMTYAPEDPTLVSTLMQKKVEVMAEP — within 0.2 log units, 0.178
- HMDFNDPTMEKSLVELPAMSNSTLRDLSENNIKKLEELAEMSVGELMDIASKISESDASALIMEARKPWF — within 0.2 log units, -0.137
- HMGNFNDMLKYLRVREKMSQAELADKLGVSKSTVGMYELGKREPDFETLEAIADLFNVDMNFLLGK — lower, -0.35
- HMITANNYFNEVERIGVETLPETLRKGHDLVVRSTNSGTNWSNYQNNESIRKVIDLYLQKLNEYVSTST — within 0.2 log units, 0.131
- HMFEATGKITGTEVSFRRKPTTDSERILFFDINTEFRVIGINNGWYKGVYQGKTGYVRSDFVEIVGG — within 0.2 log units, -0.162
- HMPIEQVEVPNLTNMTREEAESTLTSLNLKAQVHEEANEADEGKVFKQGTNTGEMVDEGSTIEIWVS — lower, -0.478
- HMELTDSLTENAKKLYSVLTTEPRHIDDLSEEAKLSSADTLAALTELELYSLVALSEGKHYYK — within 0.2 log units, 0.00954
- HMKEETYHYTVRYVTDGGDILASYEGKATKDSVFFPEVKTFDGYTAVRGEEPMFHLVSDHAVFQIVYQKNG — within 0.2 log units, -0.147
- HMGAARRFEMSEGGSQKFWEVAVEGPALTVRFGKLGTAGTTQTKTLASAEAAAKEADKLVREKTKKGYAP — within 0.2 log units, 0.222
- HMTGKVSHGERKSVLVSLAGSMRARGMSIDAVRAGLYADNEKRFDPPLDERDIEDVLNSAKKWGDP — lower, -0.322
- HMNGTGSVYKLSGKRRNPWRAVVTNGWAYNEEKGKLVQNRVTIGYYHTRDEAIQAIANYNSSP — lower, -1.52
- HMKALEGMRTVFTLADLATEPVTVEITVLEAFKYTTTLEIVQRPVLREWMTNPSMLIRVYHDASTAE — within 0.2 log units, 0.144
- HMSDLQTGDINQDGTVDEKDLSLLHSYNLELIKTISNAADLNEDGVINGLDEAYLKRLFLQNSDP — within 0.2 log units, -0.0614
- HMIPSLTITVNEHSRQITRGTSLYTLRDALYPDADVLVVNGHPADSDRHLEEGDAVVLIRRGA — lower, -0.275
- HMTSAPHHIAAVLRDAIYRGVLEEGGPLHQARIAQSLGVSPIPLREALRLLETEGLVEFRGYRGAFVT — lower, -0.492
- HMAEPAEDLLSLEGMDKGLAYQLASNGVVTREDLAELATDDLLEIREMDAEQAAALIMKAREHWFEAEQQ — within 0.2 log units, 0.211
- HMDENTEQESQTVVVPDVTGKSLSEAASILREAGLDYLAEQTGTVVTKQMPLPDAEVLINTTVLLYTDSE — within 0.2 log units, 0.0118
- HMEVVVPDFEKIYIRDLDKFVEGHNVRYEIVDSIYNLEKDKGTVVDQDPEPGSKVKHGRVIYLTVNAML — lower, -0.207
- HMIVPPAIPFRALGIFGPRDRPIVTFEDGPRLINAREGDVLDGRFILRRVGRESVDFAFVGLPPEITRRIP — lower, -0.466
- HMNLDMVINKIGIVTEDIKQDKIGEVKVLGKRWSAYSNTELKKDEKVKILSIDGVKLKVEKI — within 0.2 log units, 0.191
- HMDPLGHVIKKKRLQLGMTLRDLAAKAGVHHATIDRIETDQFKVVDPSTLVKIAEALHLDQLYLLSLN — within 0.2 log units, -0.0139
- HMVYLPGEEIPLKIIQEGKESGQGVGYLEDGTMVVVENGRRYLNQEVLVQVTKILQTNAGRLIFAVP — lower, -0.346
- HMPLDISDDSKAVLKLLKNDSNELNTVKSASGLSNKKWDKTIKELTKNKIVSVSKTEDGLYIHLI — within 0.2 log units, 0.202
- HMVPSSHNIAQKVKQIKINDLWLDVRERYIYLKNLYLSHPLEKDHPSFIVYVEAVNQIYNQYF — within 0.2 log units, 0.02
- HMSPAVSLITGKLGAETYYKQGLKKAKEKDYEGALDDLIKAYEFFPDKKIKTQVDKLASFLGKPPIL — within 0.2 log units, 0.0669
- HMLPIKLDLEIGENVRVVSGPLENFVGSVVSFDTDQQKVKLVVEMFGRKTPVELDFIEVQKLR — lower, -0.435
- HMNQKKFIQADYEDRLFDHLAFEVKDMEKIISMMRREKFTITDEPFRLSPTGSLIAFVEDPDRTLIELIER — lower, -0.32
- HMKRLLLPGDLAGVRRHLLDRENSFHILRVLRLARGSTIEAMDDAGNRFSATLAGVKAGRALFDLAAKI — lower, -1.54
- HMNSILFAITKEGGVVYGGKPVGVNGVRPLVRRLLQSEEMPVILQVDEKADAGLVIRVIDESKLGGASKV — lower, -0.269
- HMSPIKAGDLVKITGTKYYRGQTIPSWVKAKNWFVHSVSGDRAVINKSEDGKNAIMSPVKVSNLALVT — within 0.2 log units, -0.0334
- HMEIKDQADAYGKMEPASAAAILSEMTNDLTLVAKILDSMQTSKSALILQNMKPTTAAQVTTKMTAMK — within 0.2 log units, 0.0219
- HMHAPRIEVVQIDPEKIGALIGPGGKNIRRITEVTGANLDIDEDNSGKIRVYASDSEAMNRALQEIDLVT — within 0.2 log units, 0.193
- HMRVDLATEVHSVLRRMMSRPPTLQEIRADLDGEEPGRVHEALDALRAAFRGGRGPKNPYESLKRSLRRG — within 0.2 log units, 0.0134
- HMSKLSLREIVKKFEEQIIQLHKRGLNHSEISREIVTKNSIDLGDSHIDSLRRAISVHLQTP — within 0.2 log units, -0.0999
- HMKEIYIDRGKEALEKELRKRKIPFQEFLSKENTNLLFDTLKIPSHDLEELYLEIGNGKHAASTVVNTVY — within 0.2 log units, 0.136
- HMTELKKTAVDTWVKDLGTEQALAKLDTLAVVKLRRLAREYKAFGIAGRAISKADKGMLLAEFRAYYEN — lower, -1.86
- HMSINIDEEKKILGPNADQIIKGITTWGQGLVSKGIWSDADFEEFKIFAATGNGINALNKVRKYY — lower, -0.255
- HMNSEEINDVRKAVDELPTHLREILLLNYFQQMSYVQISDSLEIPLGTVKSRLHAAVAAFRNAWQSSQEE — lower, -0.617
- HMGSEISYSEFLNRVEQGQVAAVRLDGEQIFITGPTGEAYQTIQPRNTDVLPDLREAGVEIQAAPQ — within 0.2 log units, -0.0723
- HMVAGHLQEKKGYFYMVLTYRDHEGKRKSKWLPTGLTIKGNKKRAQDLLQDARKNFVPDIPT — lower, -1.32
- HMSMVGSVNKQGRPFALLRVDNLLYQVKVGDYLGQNYGRITQIDETQIALREIVQDAAGEWIERPGVLQL — within 0.2 log units, 0.00588
- HMSQIILSARSGHAALRHRLGELGYTFADKEFDDIYERFLEVADQKKEVYDEDLESIVQERQRD — within 0.2 log units, 0.0537
- HMLKPKDLHLGDSVRVLSLNLKGTVSSLPDTKGFLFVQMGIMRSKLHISDLQLIDEPVITAP — within 0.2 log units, -0.128
- HMLADEPTGALDSKTSVQIMALLTEIAQDRLVIMVTHNPELADEYATRIVNLRDGVISDDSDPFNP — within 0.2 log units, -0.079
- HMPANLTPDYFKAEQWYRSASTNEEKMLALEQMLAVMPKHKGTEHLQADLKRKLSQLKDASAQ — within 0.2 log units, 0.148
- HMQSNDAGELEAVVKGIIDANPKVVADYLAGNQKVVSFFVGQAMKATKGKANPKMVSEILGKLL — within 0.2 log units, 0.00348
- HMVKTANVAYSEFLKLVESDNISDVSIVGRTITGHLDDGTKFSTYTPPNDPSLIDKLTRKNVIIKSAPE — within 0.2 log units, -0.00389
- HMANLDSLIKKVGQYAKDKQSISVDGIKKDLSIDKDMVKEALAELLKIGVVDKPDEAGQYKVIM — higher, 0.299
